US6653282B1, “Peptide Compositions which induce immune tolerance and methods of use” (priority 1996, dated 2003)
Bridge positions count the residues as written; N and C are the ends. Square brackets hold non-standard residues; d marks the D form. Ends that are not written are not given here. Pen = CC(C)(S)[C@H](N)C(=O)O

B1: cLAB-L (peptide)
peptide: XITDGEATDSGC
modifications: not fully specified; cyclic: disulfide bridge between the amino-terminal penicillamine (Xaa in the Sequence Listing) or cysteine and the carboxy-terminal cysteine

What was measured:
[1] = target: intercellular adhesion molecule (ICAM-1) (human, UniProt P05362 28-532); test: cell-based or functional assay
[2] = target: leukocyte function-associated antigen (LFA-1) (human, UniProt P20701 26-1170; P05107 23-769); test: cell-based or functional assay
leukocyte function-associated antigen (LFA-1), sequence (P20701 26-1170, chain 1 of 2): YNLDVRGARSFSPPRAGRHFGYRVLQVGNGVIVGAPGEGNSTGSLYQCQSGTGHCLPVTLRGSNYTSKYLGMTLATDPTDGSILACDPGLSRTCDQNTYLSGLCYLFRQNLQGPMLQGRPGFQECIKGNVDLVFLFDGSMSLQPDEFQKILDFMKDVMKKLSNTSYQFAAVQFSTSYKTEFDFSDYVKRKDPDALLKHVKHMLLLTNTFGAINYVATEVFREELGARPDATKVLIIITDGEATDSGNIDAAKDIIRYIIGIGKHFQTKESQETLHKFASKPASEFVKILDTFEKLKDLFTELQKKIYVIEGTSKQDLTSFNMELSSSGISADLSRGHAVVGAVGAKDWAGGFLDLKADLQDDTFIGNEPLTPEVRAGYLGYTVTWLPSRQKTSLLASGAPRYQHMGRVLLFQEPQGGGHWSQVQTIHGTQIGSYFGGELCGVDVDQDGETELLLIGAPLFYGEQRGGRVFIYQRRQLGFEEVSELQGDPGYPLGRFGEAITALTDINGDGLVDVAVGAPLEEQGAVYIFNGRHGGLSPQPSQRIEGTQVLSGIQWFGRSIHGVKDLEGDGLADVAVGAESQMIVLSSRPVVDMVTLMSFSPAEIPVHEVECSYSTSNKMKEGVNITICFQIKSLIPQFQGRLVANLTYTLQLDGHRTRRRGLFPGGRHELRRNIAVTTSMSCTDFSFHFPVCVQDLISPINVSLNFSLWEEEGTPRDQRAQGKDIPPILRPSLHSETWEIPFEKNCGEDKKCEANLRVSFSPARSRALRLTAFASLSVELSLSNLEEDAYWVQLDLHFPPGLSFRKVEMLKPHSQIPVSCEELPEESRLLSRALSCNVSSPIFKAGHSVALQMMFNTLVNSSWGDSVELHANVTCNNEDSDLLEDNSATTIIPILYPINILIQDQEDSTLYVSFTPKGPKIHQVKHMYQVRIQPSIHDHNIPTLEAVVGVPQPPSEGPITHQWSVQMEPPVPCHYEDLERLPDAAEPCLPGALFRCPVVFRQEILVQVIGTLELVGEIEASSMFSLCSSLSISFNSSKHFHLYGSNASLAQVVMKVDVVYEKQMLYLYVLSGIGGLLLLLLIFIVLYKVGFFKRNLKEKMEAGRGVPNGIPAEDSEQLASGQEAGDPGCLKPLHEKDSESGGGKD
leukocyte function-associated antigen (LFA-1), sequence (P05107 23-769, chain 2 of 2): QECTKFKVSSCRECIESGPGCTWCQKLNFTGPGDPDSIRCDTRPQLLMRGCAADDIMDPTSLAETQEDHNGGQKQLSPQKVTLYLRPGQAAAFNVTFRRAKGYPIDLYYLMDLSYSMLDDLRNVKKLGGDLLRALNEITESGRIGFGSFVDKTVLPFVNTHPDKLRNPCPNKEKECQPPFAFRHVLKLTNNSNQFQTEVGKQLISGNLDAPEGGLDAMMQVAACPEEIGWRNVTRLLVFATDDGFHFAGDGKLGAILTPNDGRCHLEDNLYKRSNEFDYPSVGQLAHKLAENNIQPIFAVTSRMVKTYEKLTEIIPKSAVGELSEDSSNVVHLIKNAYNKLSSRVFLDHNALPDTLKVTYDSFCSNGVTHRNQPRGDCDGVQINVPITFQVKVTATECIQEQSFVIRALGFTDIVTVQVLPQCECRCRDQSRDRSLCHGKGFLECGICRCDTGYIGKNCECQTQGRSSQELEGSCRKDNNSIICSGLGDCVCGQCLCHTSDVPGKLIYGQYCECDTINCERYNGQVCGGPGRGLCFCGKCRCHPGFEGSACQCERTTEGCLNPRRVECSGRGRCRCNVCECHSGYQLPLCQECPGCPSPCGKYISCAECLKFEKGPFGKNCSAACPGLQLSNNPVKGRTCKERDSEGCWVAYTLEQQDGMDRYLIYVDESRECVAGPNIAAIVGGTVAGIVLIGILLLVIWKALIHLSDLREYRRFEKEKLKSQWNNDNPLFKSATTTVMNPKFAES

intercellular adhesion molecule (ICAM-1), sequence (P05362 28-532): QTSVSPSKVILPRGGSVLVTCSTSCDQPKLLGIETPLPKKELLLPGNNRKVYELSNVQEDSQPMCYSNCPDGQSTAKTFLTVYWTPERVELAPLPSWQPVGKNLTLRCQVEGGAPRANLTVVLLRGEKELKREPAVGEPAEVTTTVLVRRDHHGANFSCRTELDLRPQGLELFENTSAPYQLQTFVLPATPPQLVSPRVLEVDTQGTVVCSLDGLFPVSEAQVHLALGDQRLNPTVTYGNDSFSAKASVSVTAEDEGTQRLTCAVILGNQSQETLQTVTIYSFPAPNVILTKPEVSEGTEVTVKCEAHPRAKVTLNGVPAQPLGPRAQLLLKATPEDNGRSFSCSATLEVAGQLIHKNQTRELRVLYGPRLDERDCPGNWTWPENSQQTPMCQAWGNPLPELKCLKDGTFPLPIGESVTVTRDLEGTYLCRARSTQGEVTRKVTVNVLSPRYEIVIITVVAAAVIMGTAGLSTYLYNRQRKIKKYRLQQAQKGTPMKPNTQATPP

Binder	Clumping Index [1]	Clumping Index [2]
[Pen]DSGNIDAAKDC (disulfide 1-12; not fully specified) [cLAB-C]	80 clumping index (0-100)	
ITDGEATDSGNIDAAKDIIYIIGI [LAB]	75 clumping index (0-100)	
ENLARLLDGGLKKVNRLDDLSYSLD [EBL]	100 clumping index (0-100)	
[Pen]DLRNVKKLGGC (disulfide 1-12; not fully specified) [cLBE-C]	82 clumping index (0-100)	
GVDVDQDGETELIGAPLFYGEQRG [LAB.2]	48 clumping index (0-100)	
[Pen]PSKVILPRGGC (disulfide 1-12; not fully specified) [cIB-C]		61 clumping index (0-100)
[Pen]DLSYSLDDLRC (disulfide 1-12; not fully specified) [cLBE-L]	75 clumping index (0-100)	
[Pen]QTSVSPSKVIC (disulfide 1-12; not fully specified) [cIB-L]		61 clumping index (0-100)
DQPKLLGIETPLPKKELLLPGNNRK [IE]		63 clumping index (0-100)
[Pen]AKDIIYIIGIC (disulfide 1-12; not fully specified) [cLAB-R]	77 clumping index (0-100)	
[Pen]ETPLPKKELLC (disulfide 1-12; not fully specified) [cIE-C]		23 clumping index (0-100)
DLSYSLDDLRNVKKLGGDLLRALNE [LBE]	73 clumping index (0-100)	
B1	78 clumping index (0-100)	
QTSVSPSKVILPRGGSVLVTG [IB]		56 clumping index (0-100)
CLPRGGSVLVTC (disulfide 1-12; not fully specified) [cIB-R]		73 clumping index (0-100)
[Pen]GGLLRALNEC (disulfide 1-11; not fully specified) [cLBE-R]	100 clumping index (0-100)	
[Pen]GVDVDQDGETC (disulfide 1-12; not fully specified) [cLAB.2-L]	50 clumping index (0-100)	
